± gives the standard deviation of the averaged measurements.
Each sequence was assayed on Saccharomyces cerevisiae (assay: protein stability index of tFT-peptide fusion (C-terminal peptide) (PSI (0-1 scale)); higher = more stable (slower turnover)). Settings: genetic background: wild type; temperature: 30 C.
Description: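 Multiplexed protein stability (MPS) profiling in S. cerevisiae. Random 12-aa peptides (tFT-X12 library) are fused to the C-terminus of a sfGFP-mCherry tandem fluorescent timer, after mCherry and a GGGS linker. Cells are FACS-sorted into 8 mCherry/sfGFP bins and deep-sequenced. The protein stability index (PSI) is the read-weighted bin average, scaled from 0 (unstable) to 1 (stable). Only peptides with >10 reads are reported; cells were grown at 30 °C in SC-His with glucose.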
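Further: PSI is a weighted mean of sequencing reads over stability bins, variants kept only with over 10 reads, mCherry proximal and sfGFP distal, peptide attached via GGGS linker.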

Question: Which protein stability index does the source give for SVGHPAAVHHAR here?
Answer: The protein stability index was 0.675 ± 0.068.

Question: Which protein stability index does the source give for VECPFGTAGCHI here?
Answer: The protein stability index was 0.659 ± 0.057.

Question: With WPASLCRLGSVH as the sequence, how does the protein stability index read?
Answer: The protein stability index was 0.64894 ± 0.00014.

Question: For LEGGAGRPDGTG, which protein stability index is on record?
Answer: Its protein stability index is 0.671 ± 0.047.

Question: QKKKPEKKAKRA was tested. Which protein stability index did it give?
Answer: The protein stability index was 0.721 ± 0.013.

Question: PGPPSPPPPLYP was tested. Which protein stability index did it give?
Answer: The protein stability index was 0.6783 ± 0.0056.

Question: Which protein stability index does the source give for LGFPSFFPNVSV here?
Answer: Its protein stability index is 0.6946 ± 0.0017.

Question: For GLVSGGFYFGLL, which protein stability index is on record?
Answer: The protein stability index was 0.681 ± 0.054.

Question: How did the protein stability index turn out when FFGNGSGPWVLV was run?
Answer: Its protein stability index is 0.6597 ± 0.0018.

Question: For PPPPHRSHLPHS, which protein stability index is on record?
Answer: The protein stability index was 0.697 ± 0.03.

Question: Which protein stability index does the source give for EFERWCGLGRFG here?
Answer: Its protein stability index is 0.744 ± 0.096.

Question: For WWGFGGVWRCGL, which protein stability index is on record?
Answer: The protein stability index was 0.6874 ± 0.0056.

Question: For PNETQTQRPATR, which protein stability index is on record?
Answer: Its protein stability index is 0.683 ± 0.025.

Question: How did the protein stability index turn out when QSIESKKIKQKE was run?
Answer: The protein stability index was 0.7109 ± 0.0048.

Question: How did the protein stability index turn out when SPPTPPLAPLSP was run?
Answer: The protein stability index was 0.656 ± 0.042.

Question: For WRSLVTVSTTAC, which protein stability index is on record?
Answer: Its protein stability index is 0.558 ± 0.042.

Question: With SPRPLPLPLPTS as the sequence, how does the protein stability index read?
Answer: Its protein stability index is 0.682 ± 0.1.

Question: For HQLHLMRDSIRN, which protein stability index is on record?
Answer: The protein stability index was 0.716 ± 0.021.

Question: With AKGRRRRGRWWG as the sequence, how does the protein stability index read?
Answer: The protein stability index was 0.682 ± 0.032.

Question: For FRLLHLPALSCP, which protein stability index is on record?
Answer: Its protein stability index is 0.565 ± 0.013.

Question: How did the protein stability index turn out when SIIGRKVNGVSN was run?
Answer: Its protein stability index is 0.711 ± 0.0089.

Question: For RLVNSVAVSFLR, which protein stability index is on record?
Answer: The protein stability index was 0.697 ± 0.1.

Question: How did the protein stability index turn out when GKLRTVVCMCYI was run?
Answer: The protein stability index was 0.643 ± 0.1.

Question: How did the protein stability index turn out when HEDIPGSTYTIN was run?
Answer: The protein stability index was 0.734 ± 0.033.

Question: Which protein stability index does the source give for LSLPFLYCFATL here?
Answer: Its protein stability index is 0.518 ± 0.0056.

Question: SRSSASTKRNRW was tested. Which protein stability index did it give?
Answer: The protein stability index was 0.701 ± 0.096.

Question: How did the protein stability index turn out when VQKITRLVDKVV was run?
Answer: Its protein stability index is 0.813 ± 0.065.

Question: For PHHRRVVRPPTA, which protein stability index is on record?
Answer: Its protein stability index is 0.704 ± 0.013.

Question: For TRGCIRWRVVRR, which protein stability index is on record?
Answer: The protein stability index was 0.7 ± 0.035.

Question: For DRHVPPASYLAD, which protein stability index is on record?
Answer: Its protein stability index is 0.6343 ± 0.0057.

Question: RGSGCAFLFAWF was tested. Which protein stability index did it give?
Answer: Its protein stability index is 0.654 ± 0.092.

Question: AFCPLLLRGTAP was tested. Which protein stability index did it give?
Answer: Its protein stability index is 0.697 ± 0.045.

Question: With LFPYPPASALLR as the sequence, how does the protein stability index read?
Answer: Its protein stability index is 0.662 ± 0.019.

Question: How did the protein stability index turn out when PPPVPPLPSPLP was run?
Answer: The protein stability index was 0.649 ± 0.022.

Question: NSRLLPWRHELR was tested. Which protein stability index did it give?
Answer: Its protein stability index is 0.784 ± 0.1.

Question: LEPGSYRKRKPP was tested. Which protein stability index did it give?
Answer: The protein stability index was 0.587 ± 0.023.

Question: For HSPPPLPLPTHP, which protein stability index is on record?
Answer: Its protein stability index is 0.719 ± 0.077.

Question: Which protein stability index does the source give for GVVRSAPEAASL here?
Answer: The protein stability index was 0.573 ± 0.03.

Question: With WGVCVIDSWQEG as the sequence, how does the protein stability index read?
Answer: The protein stability index was 0.6706 ± 0.0032.

Question: Which protein stability index does the source give for VGGVGGLWGGAV here?
Answer: The protein stability index was 0.69 ± 0.064.

Question: How did the protein stability index turn out when FGVVLAGAGWGG was run?
Answer: Its protein stability index is 0.675 ± 0.095.

Question: PAPPPLPSSSPP was tested. Which protein stability index did it give?
Answer: The protein stability index was 0.696 ± 0.0019.

Question: With LVVWSSIVSGGG as the sequence, how does the protein stability index read?
Answer: The protein stability index was 0.675 ± 0.05.

Question: With RPPDPPLHHNLP as the sequence, how does the protein stability index read?
Answer: The protein stability index was 0.687 ± 0.014.

Question: With MCLWMGFWFACF as the sequence, how does the protein stability index read?
Answer: Its protein stability index is 0.537 ± 0.024.

Question: PPLPPSPPAPPP was tested. Which protein stability index did it give?
Answer: The protein stability index was 0.629 ± 0.0019.

Question: RSHSTSSETNFV was tested. Which protein stability index did it give?
Answer: Its protein stability index is 0.6885 ± 0.0024.

Question: For PPDPPPYAPPPP, which protein stability index is on record?
Answer: The protein stability index was 0.648 ± 0.015.

Question: Which protein stability index does the source give for KDGGRGGLNWCV here?
Answer: Its protein stability index is 0.745 ± 0.095.

Question: Which protein stability index does the source give for ILNKYYEQSMRT here?
Answer: The protein stability index was 0.68 ± 0.011.

Question: PSFLPLWFSRLR was tested. Which protein stability index did it give?
Answer: The protein stability index was 0.731 ± 0.093.

Question: How did the protein stability index turn out when GVAGGGTVVGAQ was run?
Answer: The protein stability index was 0.693 ± 0.017.

Question: Which protein stability index does the source give for FPPCCSSFFGFF here?
Answer: The protein stability index was 0.752 ± 0.024.

Question: With YFGGRGARGRER as the sequence, how does the protein stability index read?
Answer: The protein stability index was 0.676 ± 0.027.

Question: How did the protein stability index turn out when FVGVRTLSRIKI was run?
Answer: The protein stability index was 0.696 ± 0.053.

Question: How did the protein stability index turn out when RKASQEQYHQRH was run?
Answer: Its protein stability index is 0.648 ± 0.05.

Question: Which protein stability index does the source give for GFLPDSKVKNPF here?
Answer: Its protein stability index is 0.673 ± 0.029.

Question: With YVGLAAGEVGMG as the sequence, how does the protein stability index read?
Answer: Its protein stability index is 0.661 ± 0.02.

Question: PPPAPRTPPLLP was tested. Which protein stability index did it give?
Answer: Its protein stability index is 0.736 ± 0.029.

Question: For AGGGEASRGQAK, which protein stability index is on record?
Answer: Its protein stability index is 0.596 ± 0.0062.

Question: For RAKGTGRRLGVA, which protein stability index is on record?
Answer: Its protein stability index is 0.676 ± 0.013.

Question: TFFSAPLLPSIP was tested. Which protein stability index did it give?
Answer: Its protein stability index is 0.73783 ± 0.00011.

Question: For RFNLLLSATEDR, which protein stability index is on record?
Answer: Its protein stability index is 0.716 ± 0.07.

Question: With GGSGAVRSVGEW as the sequence, how does the protein stability index read?
Answer: Its protein stability index is 0.668 ± 0.036.

Question: RSSLYLDVVLSF was tested. Which protein stability index did it give?
Answer: Its protein stability index is 0.709 ± 0.097.

Question: For NHLANHAGCQKT, which protein stability index is on record?
Answer: The protein stability index was 0.667 ± 0.028.

Question: How did the protein stability index turn out when NRNVLKTRKKST was run?
Answer: Its protein stability index is 0.593 ± 0.018.

Question: With SIIIPATCEYLV as the sequence, how does the protein stability index read?
Answer: The protein stability index was 0.603 ± 0.013.

Question: FHFLNLLIPFPR was tested. Which protein stability index did it give?
Answer: The protein stability index was 0.737 ± 0.061.

Question: How did the protein stability index turn out when PVPASSSRSLLL was run?
Answer: Its protein stability index is 0.671 ± 0.0095.

Question: How did the protein stability index turn out when RGGGGRGGSEGS was run?
Answer: Its protein stability index is 0.686 ± 0.017.

Question: Which protein stability index does the source give for GRRFIPFSSFIR here?
Answer: The protein stability index was 0.79 ± 0.096.

Question: Which protein stability index does the source give for AGGIAVYFGEEE here?
Answer: The protein stability index was 0.746 ± 0.055.

Question: With SALPPSRLPRSP as the sequence, how does the protein stability index read?
Answer: The protein stability index was 0.713 ± 0.049.

Question: How did the protein stability index turn out when LPLHRFHPPPPY was run?
Answer: The protein stability index was 0.715 ± 0.041.

Question: Which protein stability index does the source give for GGGGGGGGVKGV here?
Answer: The protein stability index was 0.66 ± 0.02.

Question: With PPLAPPPPPRPP as the sequence, how does the protein stability index read?
Answer: Its protein stability index is 0.6 ± 0.072.

Question: With GYPRPLPYTPST as the sequence, how does the protein stability index read?
Answer: Its protein stability index is 0.687 ± 0.023.

Question: Which protein stability index does the source give for SGIWLKRVTMYR here?
Answer: The protein stability index was 0.7027 ± 0.0047.

Question: Which protein stability index does the source give for FVCRQSGIWHLR here?
Answer: The protein stability index was 0.686 ± 0.029.

Question: For PPPPPLPRSSLS, which protein stability index is on record?
Answer: The protein stability index was 0.6968 ± 0.0041.

Question: FLSSWFCYSSDL was tested. Which protein stability index did it give?
Answer: Its protein stability index is 0.735 ± 0.07.

Question: With LGSSPPPTLPPP as the sequence, how does the protein stability index read?
Answer: The protein stability index was 0.701 ± 0.031.

Question: How did the protein stability index turn out when RPIQPATLAYSP was run?
Answer: Its protein stability index is 0.682 ± 0.037.

Question: PPSPPPPPPFVP was tested. Which protein stability index did it give?
Answer: The protein stability index was 0.717 ± 0.033.

Question: Which protein stability index does the source give for PAFGCTSRPFPG here?
Answer: The protein stability index was 0.711 ± 0.031.

Question: How did the protein stability index turn out when APGLPSFRSLFA was run?
Answer: Its protein stability index is 0.676 ± 0.016.

Question: With KRKEKKKEKRRK as the sequence, how does the protein stability index read?
Answer: The protein stability index was 0.714 ± 0.022.

Question: PLLTFSPLPGLS was tested. Which protein stability index did it give?
Answer: The protein stability index was 0.696 ± 0.034.

Question: With FRRYGKEAVDKD as the sequence, how does the protein stability index read?
Answer: Its protein stability index is 0.696 ± 0.011.

Question: Which protein stability index does the source give for MLRRSGEGVRLE here?
Answer: Its protein stability index is 0.7218 ± 0.0045.

Question: How did the protein stability index turn out when YTSELPVLARRH was run?
Answer: Its protein stability index is 0.633 ± 0.021.

Question: For CRTTDFQCTIGN, which protein stability index is on record?
Answer: The protein stability index was 0.683 ± 0.0087.

Question: With TLSSVSEKVVHL as the sequence, how does the protein stability index read?
Answer: Its protein stability index is 0.675 ± 0.019.

Question: For KAWGGEGRDAWG, which protein stability index is on record?
Answer: The protein stability index was 0.702 ± 0.069.

Question: Which protein stability index does the source give for RMLHYCTYSLLL here?
Answer: Its protein stability index is 0.71 ± 0.079.

Question: For GGGRRVRRGGGR, which protein stability index is on record?
Answer: The protein stability index was 0.678 ± 0.056.

Question: GFGKVIMEIESI was tested. Which protein stability index did it give?
Answer: Its protein stability index is 0.715 ± 0.043.

From the supplement of paper PMC10724198
